Results as given in article doi:10.1101/568618 (bioRxiv, 2019).

B3: recombinant light-activated full-length CRY2 (natural protein)
chain: MKMDKKTIVWFRRDLRIEDNPALAAAAHEGSVFPVFIWCPEEEGQFYPGRASRWWMKQSLAHLSQSLKALGSDLTLIKTHNTISAILDCIRVTGATKVVFNHLYDPVSLVRDHTVKEKLVERGISVQSYNGDLLYEPWEIYCEKGKPFTSFNSYWKKCLDMSIESVMLPPPWRLMPITAAAEAIWACSIEELGLENEAEKPSNALLTRAWSPGWSNADKLLNEFIEKQLIDYAKNSKKVVGNSTSLLSPYLHFGEISVRHVFQCARMKQIIWARDKNSEGEESADLFLRGIGLREYSRYICFNFPFTHEQSLLSHLRFFPWDADVDKFKAWRQGRTGYPLVDAGMRELWATGWMHNRIRVIVSSFAVKFLLLPWKWGMKYFWDTLLDADLECDILGWQYISGSIPDGHELDRLDNPALQGAKYDPEGEYIRQWLPELARLPTEWIHHPWDAPLTVLKASGVELGTNYAKPIVDIDTARELLAKAISRTREAQIMIGAAPDEIVADSFEALGANTIKEPGLCPSVSSNDQQVPSAVRYNGSKRVKPEEEEERDMKKSRGFDERELFSTAESSSSSSVFFVSQSCSLASEGKNLEGIQDSSDQITTSLGKNGCK
B8: Arabidopsis COP1^349-675 WD40 domain (domain or fragment)
chain: TFTRYSRLRVIAEIRHGDIFHSANIVSSIEFDRDDELFATAGVSRCIKVFDFSSVVNEPADMQCPIVEMSTRSKLSCLSWNKHEKNHIASSDYEGIVTVWDVTTRQSLMEYEEHEKRAWSVDFSRTEPSMLVSGSDDCKVKVWCTRQEASVINIDMKANICCVKYNPGSSNYIAVGSADHHIHYYDLRNISQPLHVFSGHKKAVSYVKFLSNNELASASTDSTLRLWDVKDNLPVRTFRGHTNEKNFVGLTVNSEYLACGSETNEVYVYHKEITRPVTSHRFGSPDMDDAEEEAGSYFISAVCWKSDSPTMLTANSQGTIKVLVLAA
B9: COP1^(349-675, Lys422Ala) WD40 domain (domain or fragment)
chain: TFTRYSRLRVIAEIRHGDIFHSANIVSSIEFDRDDELFATAGVSRCIKVFDFSSVVNEPADMQCPIVEMSTRSALSCLSWNKHEKNHIASSDYEGIVTVWDVTTRQSLMEYEEHEKRAWSVDFSRTEPSMLVSGSDDCKVKVWCTRQEASVINIDMKANICCVKYNPGSSNYIAVGSADHHIHYYDLRNISQPLHVFSGHKKAVSYVKFLSNNELASASTDSTLRLWDVKDNLPVRTFRGHTNEKNFVGLTVNSEYLACGSETNEVYVYHKEITRPVTSHRFGSPDMDDAEEEAGSYFISAVCWKSDSPTMLTANSQGTIKVLVLAA

Assays:
[1] = target: UVR8^HY5C44 chimera (recombinant) (Arabidopsis | not stated); assay: SEC
[2] = target: B8; assay: crystal structure
[3] = target: B9; assay: ITC
[4] = target: B8; assay: grating-coupled interferometry
[5] = target: B8; assay: ITC
[6] = target: B9; assay: crystal structure
full-length UVR8 = target: T1, full-length UVR8 (Arabidopsis, UniProt Q9FN03 1-440); assay: grating-coupled interferometry
T1 sequence: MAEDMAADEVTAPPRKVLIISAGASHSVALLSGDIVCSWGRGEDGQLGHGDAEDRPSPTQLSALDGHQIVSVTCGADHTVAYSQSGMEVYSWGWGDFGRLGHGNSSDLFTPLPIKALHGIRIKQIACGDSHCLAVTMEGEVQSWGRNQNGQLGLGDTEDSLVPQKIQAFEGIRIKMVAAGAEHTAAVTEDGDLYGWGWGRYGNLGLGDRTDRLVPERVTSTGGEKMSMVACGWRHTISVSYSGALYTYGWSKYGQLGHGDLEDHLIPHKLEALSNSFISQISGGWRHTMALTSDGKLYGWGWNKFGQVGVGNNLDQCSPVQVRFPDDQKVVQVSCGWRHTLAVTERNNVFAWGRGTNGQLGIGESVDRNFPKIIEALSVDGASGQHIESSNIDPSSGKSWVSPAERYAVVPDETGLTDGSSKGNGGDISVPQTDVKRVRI

[7] = target: B3; assay: grating-coupled interferometry
[8] = target: T2, UVR8^12-381 (UVR8 β-propeller core) (Arabidopsis, UniProt Q9FN03 12-381); assay: grating-coupled interferometry
T2 sequence: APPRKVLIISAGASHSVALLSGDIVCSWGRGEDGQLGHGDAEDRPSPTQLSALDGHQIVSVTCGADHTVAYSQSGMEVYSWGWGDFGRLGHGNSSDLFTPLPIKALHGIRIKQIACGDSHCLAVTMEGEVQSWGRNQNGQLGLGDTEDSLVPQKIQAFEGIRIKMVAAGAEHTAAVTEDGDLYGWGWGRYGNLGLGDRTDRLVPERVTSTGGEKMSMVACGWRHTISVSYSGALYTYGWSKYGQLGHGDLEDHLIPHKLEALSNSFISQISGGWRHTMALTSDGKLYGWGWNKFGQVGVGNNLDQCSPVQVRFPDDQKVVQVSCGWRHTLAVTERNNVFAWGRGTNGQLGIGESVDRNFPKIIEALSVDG

Molecule: UVR8^HY5C44 chimera (recombinant)
- stoichiometry N [1]: 2

B1: CRY1^544-552 VP-peptide (peptide)
peptide: EDQMVPSIT
- binding result [2]: binds
- binding result [3]: binds

B2: STO^240-247 VP-peptide (peptide)
peptide: EHFIVPDL
- binding result [2]: binds

Molecule: B3
- fold increase in affinity over the isolated CRY2 VP-peptide [4]: ~200 fold

B4: CRY2^NC80 (CRY2^486-565) (domain or fragment)
chain: SRTREAQIMIGAAPDEIVADSFEALGANTIKEPGLCPSVSSNDQQVPSAVRYNGSKRVKPEEEEERDMKKSRGFDERELF
- binding result [4]: binds

B5: CRY2^527-535 VP-peptide (peptide)
peptide: NDQQVPSAV
- fold reduced binding against wild-type COP1 [3]: ~30 fold
- binding result [5]: binds

B6: HY5^39-48 VP-peptide (peptide)
peptide: EIRRVPEFGG
- binding result [6]: binds
- Kd [5]: ~20000 nM
- fold stronger binding than UVR8^406-413 [5]: ~8 fold

B7: full-length HY5 protein (natural protein)
chain: MQEQATSSLAASSLPSSSERSSSSAPHLEIKEGIESDEEIRRVPEFGGEAVGKETSGRESGSATGQERTQATVGESQRKRGRTPAEKENKRLKRLLRNRVSAQQARERKKAYLSELENRVKDLENKNSELEERLSTLQNENQMLRHILKNTTGNKRGGGGGSNADASL
- Kd [4]: ~1000 nM

Molecule: B8
- Kd (full-length UVR8): ~1000 nM
- binding result [7]: binds
- Kd [8]: ~500 nM

Molecule: B9
- binding result (full-length UVR8): binds

B10: CO^366-373 VP-peptide (peptide)
peptide: GYGIVPSF
- fold stronger binding than to wild-type COP1 [3]: ~4 fold
- binding result [5]: binds

B11: HYH^27-34 VP-peptide (peptide)
peptide: ELLMVPDM
- binding result [2]: binds

B12: UVR8^406-413 VP-peptide (peptide)
peptide: RYAVVPDE
- fold increase in affinity over wild-type COP1 [3]: ~10 fold
- binding result [5]: binds

B13: COL3^287-294 VP-peptide (peptide)
peptide: GFGVVPSF
- binding result [2]: binds
- binding result [3]: binds

B14: HFR1^57-64 VP-peptide (peptide)
peptide: YLQIVPEI
- binding result [2]: binds
